Source: US20210155689A1 (SHANGHAI PHARMAEXPLORER, published 2021)

B1: 405B8H3 (mouse antibody purified from hybridoma) (antibody, V domains shown)
VH: QVQLQQSGAELVRPGASVTLSCKASGYTFTDYEMHWVKQTPVHGLEWIGATDPETGNSAYNQKFKGKAIMTADKSSSTAYMELRSLTSEDSAVYYCISTGWNDWGQGTSLTVSS
VL: DIKMTQSPSSMYASLGERVTITCKASQDINSYLSWFQQKPGKSPKTLIYRADRLLDGVPSRFSGSGSGQDYSLTISSLEYGDMGIYYCLQYDEFPYTFGGGTKLEIK
notes: also called mAb103-405B8H3; 405B81-13
B2: 105F1E10 mouse-human chimeric antibody (antibody, V domains shown)
VH: EVQLQQSGPELVKPGASVKMSCRASGYTFTDFKMHWMKQSHGKSLEWIGYIAPNNGGTAYNQKFRGKATLTVNESSNTAYMELRSLTSEDSAVYYCVDWDDVDYWGQGTTLTVSS
VL: DIKMTQSPSSMYASLGERVTITCKASQDINSYLSWFQQKSGKSPKTLIYRANRLVDGVPSRFSGSGSGQDYSLTISSLEYEDMGIYYCLQYVEFPLTFGAGTKLELK
notes: also called mAb009-105F1E10
B3: 405B8H3 mouse-human chimeric antibody (antibody, V domains shown)
VH: QVQLQQSGAELVRPGASVTLSCKASGYTFTDYEMHWVKQTPVHGLEWIGATDPETGNSAYNQKFKGKAIMTADKSSSTAYMELRSLTSEDSAVYYCISTGWNDWGQGTSLTVSS
VL: DIKMTQSPSSMYASLGERVTITCKASQDINSYLSWFQQKPGKSPKTLIYRADRLLDGVPSRFSGSGSGQDYSLTISSLEYGDMGIYYCLQYDEFPYTFGGGTKLEIK
notes: also called mAb103-405B8H3
B4: 409B11E12 (mouse antibody purified from hybridoma) (antibody, V domains shown)
VH: QVQLQQSGAELVRPGASVTLSCKASGYTFTDYEMHWVKQTTVHGLEWIGATDPETSYSAYNQKFKGKAILTADKSSSTAYMELRSLTSEDSAVYYCIATGWNDWGQGTSLTVSS
VL: DLKMTQSPSSMYASLGERVTITCKASQDINSYLSWFQQKPGKSPKTLIYRANRLLDGVPSRFSGSGSGQDYSLTISSLEYEDMGIYYCLQYDEFPYTFGGGTKLEIK
notes: also called mAb104-409B11E12

Key:
[1] = target: T1, monkey LAG-3 (full length, on the cell surface) (monkey, UniProt P18627 24-525 (human entry)); assay: FACS, HEK293-cLAG-3; 0.013 nM
T1 construct: also called HEK293-cLAG-3; monkey LAG-3 protein on the cell surface
T1 chain: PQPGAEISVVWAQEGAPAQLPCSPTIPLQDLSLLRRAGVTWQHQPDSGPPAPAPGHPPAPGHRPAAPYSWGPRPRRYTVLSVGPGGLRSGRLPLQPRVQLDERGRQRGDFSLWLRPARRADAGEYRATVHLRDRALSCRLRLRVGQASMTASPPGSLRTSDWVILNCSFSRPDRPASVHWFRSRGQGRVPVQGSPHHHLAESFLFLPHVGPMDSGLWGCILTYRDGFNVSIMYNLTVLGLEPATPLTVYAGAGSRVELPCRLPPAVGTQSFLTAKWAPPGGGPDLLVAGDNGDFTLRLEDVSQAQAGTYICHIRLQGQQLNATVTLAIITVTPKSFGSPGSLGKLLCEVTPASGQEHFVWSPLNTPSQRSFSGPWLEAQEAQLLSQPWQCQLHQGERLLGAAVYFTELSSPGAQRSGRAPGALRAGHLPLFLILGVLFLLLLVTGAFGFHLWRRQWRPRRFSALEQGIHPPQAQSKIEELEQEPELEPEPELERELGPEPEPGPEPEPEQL
Source text: (§1) The pIRES plasmid with the monkey-derived full-length gene was transfected into the HEK293 cell line to construct a HEK293 stable cell line containing monkey LAG-3 (herein referred to as HEK293-cLAG-3 stable cell line). The HEK293-hLAG-3 stable cell line and HEK293-cLAG-3 stable cell line were expanded in a T-75 cell culture flask to a 90% confluence. The medium was aspirated, and the cells were washed with HBSS (Hanks' Balanced Salt Solution) 1-2 times, then treated with a enzyme-free cell dissociation fluid (Versene solution: Life technology) and the cells were collected. The cells were washed with HBSS buffer for 1-2 times. After counted, the cells were diluted with HBSS to 1-2×10⁶ cells per ml, added with 1% goat serum blocking solution, incubated on ice for 20-30 minutes, and then washed with HBSS for 2 times by centrifugation. The collected cells were suspended in the FACS buffer (HBSS+1% BSA) to 2×10⁶ cells/ml, added as 100 microliters per well to a 96-well FACS reaction plate, added with 100 microliters per well of the antibody sample to be tested, incubated on ice for 1-2 hours. The plate was washed twice with the FACS buffer by centrifugation, added with 100 microliters of fluorescent (Alexa 488)-labeled secondary antibodies per well, and incubated on ice for 0.5-1.0 hours. The plate was washed 2-3 times with FACS buffer by centrifugation, added with 100 μl fixative solution (4% Paraformaldehyde) per well to suspend the cells. 5-10 minutes later, it was washed 1-2 times with FACS buffer by centrifugation. The cells were suspended with 100 microliters of FACS buffer, FACS (FACSCalibur, BD) was used for detection and the results were analyzed.

[2] = target: T2, human LAG-3 (full length, on the cell surface) (human, UniProt P18627 23-525); assay: FACS, HEK293-hLAG-3; 200.000 nM
T2 construct: Full-length human LAG-3 expressed on cells; also called HEK293-hLAG-3; HEK293 cells transfected with LAG-3 gene
T2 sequence: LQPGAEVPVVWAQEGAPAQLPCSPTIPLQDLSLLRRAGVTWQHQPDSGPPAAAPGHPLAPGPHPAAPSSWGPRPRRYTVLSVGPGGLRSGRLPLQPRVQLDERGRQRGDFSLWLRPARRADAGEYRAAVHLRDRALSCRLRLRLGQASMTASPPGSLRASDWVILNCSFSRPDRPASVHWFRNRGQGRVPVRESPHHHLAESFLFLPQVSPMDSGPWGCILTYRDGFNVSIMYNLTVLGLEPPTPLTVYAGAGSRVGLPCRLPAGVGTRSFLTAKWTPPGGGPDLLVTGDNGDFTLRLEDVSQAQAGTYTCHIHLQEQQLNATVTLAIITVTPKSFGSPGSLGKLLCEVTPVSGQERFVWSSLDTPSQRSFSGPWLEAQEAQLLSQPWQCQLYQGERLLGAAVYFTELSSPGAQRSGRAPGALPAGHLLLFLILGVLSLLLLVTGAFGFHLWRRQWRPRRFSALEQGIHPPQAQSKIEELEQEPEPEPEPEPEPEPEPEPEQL
Source text: as §1

[3] = target: T3, human LAG-3 on cells (HEK293-hLAG-3 stable cell line) (human, UniProt P18627 23-525); assay: cell-based or functional assay
T3 sequence: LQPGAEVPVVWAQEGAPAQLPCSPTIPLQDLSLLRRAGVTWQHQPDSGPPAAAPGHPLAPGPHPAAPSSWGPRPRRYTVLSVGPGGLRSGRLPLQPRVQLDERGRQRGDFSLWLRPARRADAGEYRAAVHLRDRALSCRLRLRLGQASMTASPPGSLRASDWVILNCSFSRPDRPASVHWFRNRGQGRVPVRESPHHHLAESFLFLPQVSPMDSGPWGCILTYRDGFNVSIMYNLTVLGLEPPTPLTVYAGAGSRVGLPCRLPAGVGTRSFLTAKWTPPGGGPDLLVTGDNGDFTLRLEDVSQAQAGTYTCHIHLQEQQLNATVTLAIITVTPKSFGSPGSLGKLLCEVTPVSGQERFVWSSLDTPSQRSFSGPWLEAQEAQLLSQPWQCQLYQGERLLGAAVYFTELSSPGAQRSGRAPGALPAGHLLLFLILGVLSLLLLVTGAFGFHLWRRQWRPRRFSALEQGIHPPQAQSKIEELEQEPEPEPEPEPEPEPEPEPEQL

Row | Binder | Mean fluorescence intensity [1] [MFI] | Mean fluorescence intensity [2] [MFI] | IL-2 production, SEB-dependent PBMC stimulation test, 0.0032 ug/ml, N = 1 [3] [pg/mL] | IL-2 production, SEB-dependent PBMC stimulation test, 0.0032 ug/ml, N = 2 [3] [pg/mL] | IL-2 production, SEB-dependent PBMC stimulation test, 0.016 ug/ml, N = 1 [3] [pg/mL] | IL-2 production, SEB-dependent PBMC stimulation test, 0.016 ug/ml, N = 2 [3] [pg/mL] | IL-2 production, SEB-dependent PBMC stimulation test, 0.08 ug/ml, N = 1 [3] [pg/mL] | IL-2 production, SEB-dependent PBMC stimulation test, 0.08 ug/ml, N = 2 [3] [pg/mL] | IL-2 production, SEB-dependent PBMC stimulation test, 0.4 ug/ml, N = 1 [3] [pg/mL] | IL-2 production, SEB-dependent PBMC stimulation test, 0.4 ug/ml, N = 2 [3] [pg/mL] | IL-2 production, SEB-dependent PBMC stimulation test, 2 ug/ml, N = 1 [3] [pg/mL] | IL-2 production, SEB-dependent PBMC stimulation test, 2 ug/ml, N = 2 [3] [pg/mL] | IL-2 production, SEB-dependent PBMC stimulation test, 10 ug/ml, N = 1 [3] [pg/mL] | IL-2 production, SEB-dependent PBMC stimulation test, 10 ug/ml, N = 2 [3] [pg/mL]
1 | B1 | 4.2 | 324 | – | – | – | – | – | – | – | – | – | – | – | –
2 | B2 | – | – | 2340 | 1840 | 1720 | 1520 | 2130 | 1770 | 2550 | 2570 | 3970 | 3660 | 3740 | 3650
3 | B3 | – | – | 2000 | 1600 | 1880 | 1770 | 1800 | 1840 | 2790 | 3240 | 2700 | 2850 | 3280 | 3160
4 | B4 | 3.3 | 144 | – | – | – | – | – | – | – | – | – | – | – | –
